Tests used:
[1] = LC/MS/MS C15S activity assay of monkey plasma samples; format: in vivo, cynomolgus monkey
From the text: The bioanalytical method developed using LC/MS/MS for the determination of cystathionine M+4 as product of the CBS activity using cystathionine M+8 (^13C2D6) as an internal standard has been developed and validated for both monkey and human plasma samples and thus can be used to determine CBS activity in samples from pharmacokinetic and toxicology studies as well as clinical trials. The enzymatic assay was essentially performed as described in Example 1 with the following modifications. Deuterated D,L-homocysteine M+4 was used to initiate the reaction with unlabeled L-serine in the reaction mixture. After 30 min incubation at 37° C., the enzymatic reaction was stopped by acidification using 6N HCl and labeled product of the reaction (cystathionine M+4) was extracted using EZ:faast kit (Phenomenex, USA). Briefly, 50 μl of sample (calibration standard, QC sample or enzymatic reaction) was mixed in tube on ice and protected from light with 100 μl of internal standard solution (cystathionine M+8, 0.25 ng/μl) and 250 μl water. The mix was extracted with MCX cartridge columns (Waters). Eluted medium (6N ammonia in methanol) was evaporated to dryness at 45° C. The dry residue was dissolved in eluent medium of the EZ:faast kit, derivatized and liquid-liquid extracted following the kit manufacturer's protocol. The solid phase extraction was automatized with extraction plates to increase throughput and save time. Measurable concentrations of cystathionine M+4 were observed regardless of origin of the enzyme (htCBS C15S or C15S/ME-200GS present in plasma samples or controls or traces of endogenous monkey/human CBS in plasma samples). Much attention was paid to the calibration range since the incurred determinations were in the higher part of the concentration range qualified (5.00 to 1500 nM).
Tables 12-14 below show the comparison of C15S/ME-200GS specific activity determined by LC/MS/MS using D,L-homocysteine M+4 as a substrate and by radiometric assay using L-[…] as a substrate. The enzyme's specific activity is presented in mU/μl. The “n.d.” stands for “not determined”.

Hcy, Cth, Cys, Met = test: Diet study (regular vs Met-restricted diet) in I278T mice: plasma metabolites; format: in vivo
Protocol: A diet study was performed in I278T mice and analyze them. Plasma metabolites of 10 weeks old mice: +/− I278T (control), −/− I278T (negative control), and −/− treated with 20NHS PEG-[…] (OT-58) mice. Each group was further divided into subgroups: one on a regular diet (8.2 g/kg Met TD.01084 diet+zinc water) (REG) and one on a methionine-restricted diet (0.5 g/kg Met TD.110591 diet+betaine water) (MRD). Treatment was begun at W5 of age.

Hcy, Cys = test: Continuous administration by ALZET osmotic pump in HO mice; format: in vivo; settings: ALZET Model 2004 or 2006 pumps
Protocol: ALZET® osmotic pumps provide steady, controlled delivery of the 20NHS PEG-htCBS C15S for a prolonged period of time in fresh and naïve HO mice. The htCBS C15S PEGylated with ME-200GS was administrated using four different models of micro-osmotic ALZET® pumps, which continuously dispensed a volume of enzyme per hour instead of repeated subcutaneous injections: Model 1002 (0.25 μl/h), Model 2002 (0.5 μl/h), Model 2004 (0.25 μl/h), and Model 2006 (0.15 μl/h).
For pain relief, pre- and post-operatively, animals were also administered TYLENOL® (2 mg/ml) in water bottles ad libitum for 48 hours before and after surgery for implantation of the ALZET® pump. In addition, the animals received 5 mg/kg of carprofen subcutaneously every 24 hours, and for 48 hours postoperatively. For anesthesia during surgery, 5% isoflurane was administered by inhalation and maintained at 2-3% during surgery. While mice were anesthetized, they each received a medical grade ALZET® osmotic pump implanted under sterile conditions in a biological safety cabinet. Pumps were implanted subcutaneously in the loose skin area on the ventral side of the neck. Prior to implanting the pump, the mice were shaved and the skin area was prepped with BETADINE®. Pump implantation required a small surgical incision (5 mm) made with sterile scissors. […]

20NHS PEG-htCBS C15S: htCBS C15S PEGylated with ME-200GS PEG (20 kDa linear NHS ester-activated PEG)
specific activity in plasma, LC/MS/MS assay ([1]; single IV 2 mg/kg, 0.083 h): 88.865 mU/μl | specific activity in plasma, LC/MS/MS assay ([1]; single IV 2 mg/kg, 0.167 h): 81.065 mU/μl | specific activity in plasma, LC/MS/MS assay ([1]; single IV 2 mg/kg, 0.25 h): 80.315 mU/μl | specific activity in plasma, LC/MS/MS assay ([1]; single IV 2 mg/kg, 0.5 h): 81.815 mU/μl | specific activity in plasma, LC/MS/MS assay ([1]; single IV 2 mg/kg, 1 h): 75.415 mU/μl | specific activity in plasma, LC/MS/MS assay ([1]; single IV 2 mg/kg, 2 h): 71.765 mU/μl | specific activity in plasma, LC/MS/MS assay ([1]; single IV 2 mg/kg, 4 h): 67.415 mU/μl | specific activity in plasma, LC/MS/MS assay ([1]; single IV 2 mg/kg, 8 h): 61.715 mU/μl | specific activity in plasma, LC/MS/MS assay ([1]; single IV 2 mg/kg, 24 h): 47.815 mU/μl | specific activity in plasma, LC/MS/MS assay ([1]; single IV 2 mg/kg, 72 h): 28.915 mU/μl | specific activity in plasma, LC/MS/MS assay ([1]; single IV 2 mg/kg, 120 h): 17.180 mU/μl | specific activity in plasma, LC/MS/MS assay ([1]; single IV 2 mg/kg, 192 h): 8.490 mU/μl | specific activity in plasma, LC/MS/MS assay ([1]; single SC 2 mg/kg, 2 h): 6.479 mU/μl | specific activity in plasma, LC/MS/MS assay ([1]; single SC 2 mg/kg, 4 h): 11.108 mU/μl | specific activity in plasma, LC/MS/MS assay ([1]; single SC 2 mg/kg, 8 h): 19.913 mU/μl | specific activity in plasma, LC/MS/MS assay ([1]; single SC 2 mg/kg, 48 h): 32.538 mU/μl | specific activity in plasma, LC/MS/MS assay ([1]; single SC 2 mg/kg, 72 h): 27.888 mU/μl | specific activity in plasma, LC/MS/MS assay ([1]; single SC 2 mg/kg, 96 h): 20.768 mU/μl | specific activity in plasma, LC/MS/MS assay ([1]; single SC 2 mg/kg, 120 h): 16.958 mU/μl | specific activity in plasma, LC/MS/MS assay ([1]; single SC 2 mg/kg, 192 h): 9.063 mU/μl | specific activity in plasma, LC/MS/MS assay ([1]; single SC 2 mg/kg, 240 h): 5.908 mU/μl | specific activity in plasma, LC/MS/MS assay ([1]; single SC 2 mg/kg, 336 h): 2.273 mU/μl | specific activity in plasma, LC/MS/MS assay ([1]; single SC 6 mg/kg, 1 h): 3.065 mU/μl | specific activity in plasma, LC/MS/MS assay ([1]; single SC 6 mg/kg, 2 h): 7.640 mU/μl | specific activity in plasma, LC/MS/MS assay ([1]; single SC 6 mg/kg, 4 h): 18.365 mU/μl | specific activity in plasma, LC/MS/MS assay ([1]; single SC 6 mg/kg, 8 h): 41.090 mU/μl | specific activity in plasma, LC/MS/MS assay ([1]; single SC 6 mg/kg, 24 h): 85.190 mU/μl | specific activity in plasma, LC/MS/MS assay ([1]; single SC 6 mg/kg, 48 h): 86.090 mU/μl | specific activity in plasma, LC/MS/MS assay ([1]; single SC 6 mg/kg, 72 h): 74.840 mU/μl | specific activity in plasma, LC/MS/MS assay ([1]; single SC 6 mg/kg, 96 h): 59.940 mU/μl | specific activity in plasma, LC/MS/MS assay ([1]; single SC 6 mg/kg, 120 h): 56.340 mU/μl | specific activity in plasma, LC/MS/MS assay ([1]; single SC 6 mg/kg, 192 h): 24.190 mU/μl | specific activity in plasma, LC/MS/MS assay ([1]; single SC 6 mg/kg, 240 h): 14.440 mU/μl | specific activity in plasma, LC/MS/MS assay ([1]; single SC 6 mg/kg, 336 h): 4.784 mU/μl | plasma Cth (Hcy, Cth, Cys, Met; −/− I278T on MRD diet): 10 µM | plasma Hcy (Hcy, Cth, Cys, Met; −/− I278T on MRD diet (41 μM untreated)): 2 µM | plasma Cth (Hcy, Cth, Cys, Met; −/− I278T on REG diet): 113 µM | plasma Met (Hcy, Cth, Cys, Met; −/− I278T on REG diet): 66 µM | plasma Hcy (Hcy, Cth, Cys, Met; −/− I278T on REG diet (356 μM untreated)): 50 µM | plasma Hcy (Hcy, Cth, Cys, Met; −/− I278T on REG diet (356 μM untreated), listed as OT-58): 51 µM | plasma Cys (Hcy, Cth, Cys, Met; −/− I278T, MRD diet and/or treatment): normalize plasma levels of Cys | Cys plasma levels (Hcy, Cys): only a modest increase | plasma levels of Hcy (Hcy, Cys): substantially reduced
